Data taken from patent US11903969.

Target: CD19 on CD19+ cells (Nalm6-GL, Raji, donor B cells) (UniProt P15391)
Test: cell-based or functional assay

UniProt P15391, sequence (P15391 20-556 limits assumed): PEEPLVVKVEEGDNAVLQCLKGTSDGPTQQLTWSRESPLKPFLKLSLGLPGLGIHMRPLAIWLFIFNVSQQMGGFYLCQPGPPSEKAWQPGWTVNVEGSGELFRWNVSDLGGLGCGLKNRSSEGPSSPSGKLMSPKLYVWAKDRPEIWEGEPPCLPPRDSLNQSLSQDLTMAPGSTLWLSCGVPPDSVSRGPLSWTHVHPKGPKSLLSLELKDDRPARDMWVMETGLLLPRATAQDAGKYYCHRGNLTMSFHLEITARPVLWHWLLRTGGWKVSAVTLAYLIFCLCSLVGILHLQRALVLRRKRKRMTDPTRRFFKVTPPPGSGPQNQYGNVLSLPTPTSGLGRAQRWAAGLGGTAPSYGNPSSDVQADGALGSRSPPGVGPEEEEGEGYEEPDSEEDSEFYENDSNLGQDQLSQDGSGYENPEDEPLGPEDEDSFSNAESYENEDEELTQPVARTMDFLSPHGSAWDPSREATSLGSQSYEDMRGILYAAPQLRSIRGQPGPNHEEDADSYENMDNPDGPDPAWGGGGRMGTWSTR

CD19+ cell population (B cells) remaining 24 hours after gene targeting: 2.53%
Substance: CD19.28.ζ-CAR (CD19-specific chimeric antigen receptor with FMC63 scFv, CD28 hinge, transmembrane and intracellular sequences and CD3ζ intracellular domain) (from UniProt P10747 114-220; P20963 52-164)
